Patent publication US20180298083A1 (US Dept. of Health and Human Services, published 2018)
Like-named read-outs stand apart in the source and are kept apart here.

How the values were obtained:
CAAN.A2 [1] = target: CAAN.A2 (HIV-1); test: cell-based or functional assay
CAAN.A2 [2] = target: CAAN.A2 (HIV-1); test: cell-based or functional assay; remark: listed apart in the source
CAAN.A2 [3] = target: CAAN.A2 (HIV-1); test: cell-based or functional assay; remark: listed apart in the source
monomeric gp120^JRCSF = target: T1, monomeric gp120^JRCSF (HIV-1 strain JRCSF, UniProt P20871 32-503); test: gp120 capture ELISA
T1 construct: domain: gp120

[4] = target: T2, SSB, Sjogren syndrome antigen B (Homo sapiens (Human), UniProt P05455 1-408); test: Luminex AtheNA Multi-Lyte ANA test
T2 construct: also called SS-B/La
T2 sequence: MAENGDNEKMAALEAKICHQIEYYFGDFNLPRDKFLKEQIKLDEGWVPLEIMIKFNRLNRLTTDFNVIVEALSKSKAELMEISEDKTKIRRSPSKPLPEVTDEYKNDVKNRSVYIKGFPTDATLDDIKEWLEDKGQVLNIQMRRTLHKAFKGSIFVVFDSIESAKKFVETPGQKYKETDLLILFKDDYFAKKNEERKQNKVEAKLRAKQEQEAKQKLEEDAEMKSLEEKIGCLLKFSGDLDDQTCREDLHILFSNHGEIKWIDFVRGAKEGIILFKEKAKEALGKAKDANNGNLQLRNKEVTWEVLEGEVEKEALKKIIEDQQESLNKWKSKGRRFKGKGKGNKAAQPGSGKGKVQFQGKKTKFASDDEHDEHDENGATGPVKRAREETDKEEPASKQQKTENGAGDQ

Histone = test: Luminex AtheNA Multi-Lyte ANA test
[5] = target: T3, SSA, Sjogren's syndrome antigen A; test: Luminex AtheNA Multi-Lyte ANA test
T3 construct: also called SSA/Ro

[6] = target: T2, SSB, Sjogren syndrome antigen B; test: Luminex AtheNA Multi-Lyte ANA test; remark: listed apart in the source
Sm, Smith antigen = test: Luminex AtheNA Multi-Lyte ANA test
RNP, ribonucleoprotein = test: Luminex AtheNA Multi-Lyte ANA test
Jo1 antigen = target: T4, Jo1 antigen; test: Luminex AtheNA Multi-Lyte ANA test
T4 construct: also called Jol

CentrB, centromere B = test: Luminex AtheNA Multi-Lyte ANA test
CentrB, centromere B, sequence (P07199 2-599): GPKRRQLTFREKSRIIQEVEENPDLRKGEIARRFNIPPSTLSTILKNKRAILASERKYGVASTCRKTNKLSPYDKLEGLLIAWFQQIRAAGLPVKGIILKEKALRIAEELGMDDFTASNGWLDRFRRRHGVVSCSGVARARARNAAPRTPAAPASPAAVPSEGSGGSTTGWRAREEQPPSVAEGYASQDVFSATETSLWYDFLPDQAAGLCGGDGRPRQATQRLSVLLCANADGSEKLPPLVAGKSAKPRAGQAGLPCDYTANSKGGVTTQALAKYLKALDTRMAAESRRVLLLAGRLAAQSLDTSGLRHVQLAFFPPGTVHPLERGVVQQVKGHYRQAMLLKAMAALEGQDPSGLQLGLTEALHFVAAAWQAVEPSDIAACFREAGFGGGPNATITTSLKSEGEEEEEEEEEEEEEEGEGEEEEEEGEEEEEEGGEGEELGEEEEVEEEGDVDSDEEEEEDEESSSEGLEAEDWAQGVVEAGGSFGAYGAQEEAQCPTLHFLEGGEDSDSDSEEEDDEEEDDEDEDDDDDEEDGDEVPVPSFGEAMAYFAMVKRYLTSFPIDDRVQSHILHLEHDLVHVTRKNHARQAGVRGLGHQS

B1: VRC01 (antibody, V domains shown)
VH: QVQLVQSGGQMKKPGESMRISCRASGYEFIDCTLNWIRLAPGKRPEWMGWLKPRGGAVNYARPLQGRVTMTRDVYSDTAFLELRSLTVDDTAVYFCTRGKNCDYNWDFEHWGRGTPVIVSS
VL: EIVLTQSPGTLSLSPGETAIISCRTSQYGSLAWYQQRPGQAPRLVIYSGSTRAAGIPDRFSGSRWGPDYNLTISNLESGDFGVYYCQQYEFFGQGTKVQVDI
CAAN.A2 [1]
  neutralisation IC50: 1.06 µg/mL
CAAN.A2 [2]
  neutralisation IC50: 1.06 µg/mL
CAAN.A2 [3]
  neutralisation IC50: 1.06 µg/mL

B2: VRC-PG04 (antibody, V domains shown)
VH: QVQLVQSGSGVKKPGASVRVSCWTSEDIFERTELIHWVRQAPGQGLEWIGWVKTVTGAVNFGSPDFRQRVSLTRDRDLFTAHMDIRGLTQGDTATYFCARQKFYTGGQGWYFDLWGRGTLIVVSS
VL: EIVLTQSPGTLSLSPGETASLSCTAASYGHMTWYQKKPGQPPKLLIFATSKRASGIPDRFSGSQFGKQYTLTITRMEPEDFARYYCQQLEFFGQGTRLEIR
Monomeric gp120^JRCSF
  Binding affinity relative to WT (%): 100%

B3: N6 antibody (antibody, V domains shown)
VH: RAHLVQSGTAMKKPGASVRVSCQTSGYTFTAHILFWFRQAPGRGLEWVGWIKPQYGAVNFGGGFRDRVTLTRDVYREIAYMDIRGLKPDDTAVYYCARDRSYGDSSWALDAWGQGTTVVVSA
VL: YIHVTQSPSSLSVSIGDRVTINCQTSQGVGSDLHWYQHKPGRAPKLLIHHTSSVEDGVPSRFSGSGFHTSFNLTISDLQADDIATYYCQVLQFFGRGSRLHIK
notes: also called N6 mAb
[4]
  binding result: no binding (tested: 50 µg/ml)
Histone
  Luminex reactivity (unit not given): 50.6
[5]
  Luminex reactivity (unit not given): 36.4
[6]
  Luminex reactivity (unit not given): 100
Sm, Smith antigen
  Luminex reactivity (unit not given): 5.2
RNP, ribonucleoprotein
  Luminex reactivity (unit not given): 16.8
Jo1 antigen
  Luminex reactivity (unit not given): 56.4
CentrB, centromere B
  Luminex reactivity (unit not given): 22
